# Laboratory results from patent US20150344570A1 (published 2015).
# T1: FcγRIIa R extracellular domain with C-terminal His tag (human, UniProt P12318 34-217)
# T1 construct: extracellular domain; also called FcgRIIa R; 2aR; not shown: His tag at the C terminus
# T1 sequence (looked up): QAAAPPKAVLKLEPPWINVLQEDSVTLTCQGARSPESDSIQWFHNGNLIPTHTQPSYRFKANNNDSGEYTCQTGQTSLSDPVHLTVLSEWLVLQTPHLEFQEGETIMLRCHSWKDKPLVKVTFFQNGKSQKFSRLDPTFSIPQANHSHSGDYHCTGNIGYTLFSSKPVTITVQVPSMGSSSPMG
# B1: GpH7-A5/GpH7-B3 variant S267_06M/GpL16-k0 (antibody, human IgG1, kappa)
# heavy 1: not shown
# heavy 2: not shown
# light: DIVMTQSPLSLPVTPGEPASISCQASESLVHSNRNTYLHWYLQKPGQSPQLLIYKVSNRFSGVPDRFSGSGSGTDFTLKISRVEAEDVGVYYCSQNTHVPPTFGQGTKVEIERTVAAPSVFIFPPSDEQLKSGTASVVCLLNNFYPREAKVQWKVDNALQSGNSQESVTEQDSKDSTYSLSSTLTLSKADYEKHKVYACEVTHQGLSSPVTKSFNRGEC
# notes: heterodimerized: alteration in one H chain only; also called He Ab S267_06M
# B2: GpH7-A5/GpH7-B3 variant S337_16H/GpL16-k0 (antibody, human IgG1, kappa)
# heavy 1: not shown
# heavy 2: not shown
# light: B1 light
# notes: heterodimerized: alteration in one H chain only; also called He Ab S337_16H
# B3: GpH7-A5/GpH7-B3 variant S267_19Q/GpL16-k0 (antibody, human IgG1, kappa)
# heavy 1: not shown
# heavy 2: not shown
# light: B1 light
# notes: heterodimerized: alteration in one H chain only; also called He Ab S267_19Q
# B4: GpH7-A5/GpH7-B3 variant T335_05P/GpL16-k0 (antibody, human IgG1, kappa)
# heavy 1: not shown
# heavy 2: not shown
# light: B1 light
# notes: heterodimerized: alteration in one H chain only; also called He Ab T335_05P
# B5: GpH7-A5/GpH7-B3 variant S337_19Q/GpL16-k0 (antibody, human IgG1, kappa)
# heavy 1: not shown
# heavy 2: not shown
# light: B1 light
# notes: heterodimerized: alteration in one H chain only; also called He Ab S337_19Q
# B6: GpH7-A5/GpH7-B3 variant S337_15Y/GpL16-k0 (antibody, human IgG1, kappa)
# heavy 1: not shown
# heavy 2: not shown
# light: B1 light
# notes: heterodimerized: alteration in one H chain only; also called He Ab S337_15Y
# B7: GpH7-A5/GpH7-B3 variant S324_06M/GpL16-k0 (antibody, human IgG1, kappa)
# heavy 1: not shown
# heavy 2: not shown
# light: B1 light
# notes: heterodimerized: alteration in one H chain only; also called He Ab S324_06M
# B8: GpH7-A5/GpH7-B3 variant S337_03V/GpL16-k0 (antibody, human IgG1, kappa)
# heavy 1: not shown
# heavy 2: not shown
# light: B1 light
# notes: heterodimerized: alteration in one H chain only; also called He Ab S337_03V
# B9: GpH7-A5/GpH7-B3 variant S337_06M/GpL16-k0 (antibody, human IgG1, kappa)
# heavy 1: not shown
# heavy 2: not shown
# light: B1 light
# notes: heterodimerized: alteration in one H chain only; also called He Ab S337_06M
# B10: GpH7-A5/GpH7-B3 variant T335_07I/GpL16-k0 (antibody, human IgG1, kappa)
# heavy 1: not shown
# heavy 2: not shown
# light: B1 light
# notes: heterodimerized: alteration in one H chain only; also called He Ab T335_07I
# B11: GpH7-A5/GpH7-B3 variant T335_10E/GpL16-k0 (antibody, human IgG1, kappa)
# heavy 1: not shown
# heavy 2: not shown
# light: B1 light
# notes: heterodimerized: alteration in one H chain only; also called He Ab T335_10E
# B12: GpH7-A5/GpH7-B3 variant T335_13S/GpL16-k0 (antibody, human IgG1, kappa)
# heavy 1: not shown
# heavy 2: not shown
# light: B1 light
# notes: heterodimerized: alteration in one H chain only; also called He Ab T335_13S
# B13: GpH7-A5/GpH7-B3 variant S298_08L/GpL16-k0 (antibody, human IgG1, kappa)
# heavy 1: not shown
# heavy 2: not shown
# light: B1 light
# notes: heterodimerized: alteration in one H chain only; also called He Ab S298_08L
# B14: GpH7-A5/GpH7-B3 variant S267_09D/GpL16-k0 (antibody, human IgG1, kappa)
# heavy 1: not shown
# heavy 2: not shown
# light: B1 light
# notes: heterodimerized: alteration in one H chain only; also called He Ab S267_09D
# B15: GpH7-A5/GpH7-B3 variant S337_09D/GpL16-k0 (antibody, human IgG1, kappa)
# heavy 1: not shown
# heavy 2: not shown
# light: B1 light
# notes: heterodimerized: alteration in one H chain only; also called He Ab S337_09D
# B16: GpH7-A5/GpH7-B3 variant S337_20W/GpL16-k0 (antibody, human IgG1, kappa)
# heavy 1: not shown
# heavy 2: not shown
# light: B1 light
# notes: heterodimerized: alteration in one H chain only; also called He Ab S337_20W
# B17: GpH7-A5/GpH7-B3 variant T335_02A/GpL16-k0 (antibody, human IgG1, kappa)
# heavy 1: not shown
# heavy 2: not shown
# light: B1 light
# notes: heterodimerized: alteration in one H chain only; also called He Ab T335_02A
# B18: GpH7-A5/GpH7-B3 variant S337_10E/GpL16-k0 (antibody, human IgG1, kappa)
# heavy 1: not shown
# heavy 2: not shown
# light: B1 light
# notes: heterodimerized: alteration in one H chain only; also called He Ab S337_10E
# B19: GpH7-A5/GpH7-B3 variant S337_07I/GpL16-k0 (antibody, human IgG1, kappa)
# heavy 1: not shown
# heavy 2: not shown
# light: B1 light
# notes: heterodimerized: alteration in one H chain only; also called He Ab S337_07I
# B20: GpH7-A5/GpH7-B3 variant S337_18N/GpL16-k0 (antibody, human IgG1, kappa)
# heavy 1: not shown
# heavy 2: not shown
# light: B1 light
# notes: heterodimerized: alteration in one H chain only; also called He Ab S337_18N
# Target: T1, FcγRIIa R extracellular domain with …
# Experiment: SPR (Biacore), relative FcγRIIa R binding, GpH7-A5/GpH7-B3/GpL16-k0 = 100
row,He/Con_2aR,Binder
1,122 % of control,B1
2,109 % of control,B2
3,135 % of control,B3
4,104 % of control,B4
5,106 % of control,B5
6,105 % of control,B6
7,123 % of control,B7
8,106 % of control,B8
9,105 % of control,B9
10,109 % of control,B10
11,111 % of control,B11
12,110 % of control,B12
13,105 % of control,B13
14,173 % of control,B14
15,115 % of control,B15
16,110 % of control,B16
17,102 % of control,B17
18,112 % of control,B18
19,109 % of control,B19
20,107 % of control,B20
